Columns and labels:
FGFR1 = FGFR1 (UniProt P11362); assay: phosphorylation enrichment, bacterial display (enrichment ratio); higher = better substrate or ligand; peptides without Tyr show the background
c-Abl (mouse) = assay: as above
FGFR3 = FGFR3 (UniProt P22607); assay: as above
EPHB2 = EPHB2 (UniProt P29323); assay: as above
Fer (mouse) = assay: as above
c-Src = assay: as above
AncSZ = assay: as above
EPHB1 = EPHB1 (UniProt P54762); assay: as above
Hck = Hck (UniProt P08631); assay: as above
MERTK = MERTK (UniProt Q12866); assay: as above
Fyn = Fyn (UniProt P06241); assay: as above
Fes = Fes (UniProt P07332); assay: as above
Jak2 = Jak2 (UniProt O60674); assay: as above
SHP2-C SH2 = assay: SH2 binding enrichment of the phosphorylated peptide, bacterial display (enrichment ratio); higher = better substrate or ligand; peptides without Tyr show the background
Grb2 SH2 = Grb2 SH2 (UniProt P62993); assay: as above
c-Src SH2 = assay: as above
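Wherever SH2 binding enrichment of the phosphorylated peptide, bacterial display is given: peptide library displayed on the E. coli surface as eCPX fusions, selected cells deep-sequenced, score is each peptide's frequency after selection divided by its frequency in the input.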
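Wherever phosphorylation enrichment, bacterial display is given: 11-residue human phosphosite peptides and single-mutation variants displayed on the E. coli surface, counted by deep sequencing, each peptide's frequency after selection divided by its frequency in the unselected input library; frequency after pTyr selection over input frequency; kinase dosed for 20-30% of maximal phosphorylation in three min.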

Sequence of EPHB2 (P29323 whole entry, looked up): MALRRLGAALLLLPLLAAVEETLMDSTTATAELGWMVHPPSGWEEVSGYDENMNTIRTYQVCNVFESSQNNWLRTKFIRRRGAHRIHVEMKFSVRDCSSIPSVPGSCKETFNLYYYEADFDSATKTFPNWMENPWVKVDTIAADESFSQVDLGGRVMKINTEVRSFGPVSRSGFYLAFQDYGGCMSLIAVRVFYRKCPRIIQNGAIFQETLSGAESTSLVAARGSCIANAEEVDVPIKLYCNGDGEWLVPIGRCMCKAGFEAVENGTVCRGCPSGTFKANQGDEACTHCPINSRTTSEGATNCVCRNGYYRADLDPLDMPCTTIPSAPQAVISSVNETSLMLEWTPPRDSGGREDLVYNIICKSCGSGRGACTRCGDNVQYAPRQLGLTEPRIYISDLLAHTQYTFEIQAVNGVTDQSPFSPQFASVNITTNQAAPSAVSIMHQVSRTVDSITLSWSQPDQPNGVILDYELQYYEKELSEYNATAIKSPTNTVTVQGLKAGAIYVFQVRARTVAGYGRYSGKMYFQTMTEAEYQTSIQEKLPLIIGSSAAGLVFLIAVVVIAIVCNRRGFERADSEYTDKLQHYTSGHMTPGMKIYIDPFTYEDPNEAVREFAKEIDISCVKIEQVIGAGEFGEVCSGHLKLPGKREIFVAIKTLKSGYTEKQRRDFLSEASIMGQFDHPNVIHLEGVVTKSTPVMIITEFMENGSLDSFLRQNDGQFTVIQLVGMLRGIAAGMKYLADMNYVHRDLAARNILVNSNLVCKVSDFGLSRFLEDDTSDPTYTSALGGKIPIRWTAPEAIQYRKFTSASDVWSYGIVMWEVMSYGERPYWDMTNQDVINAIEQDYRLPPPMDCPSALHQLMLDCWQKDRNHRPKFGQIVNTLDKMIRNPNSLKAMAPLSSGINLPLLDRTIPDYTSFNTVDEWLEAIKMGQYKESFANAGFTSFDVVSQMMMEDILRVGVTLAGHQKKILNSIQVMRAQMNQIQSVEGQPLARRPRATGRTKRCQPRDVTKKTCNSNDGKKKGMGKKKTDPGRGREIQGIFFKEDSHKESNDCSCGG
Sequence of Hck (P08631 whole entry, looked up): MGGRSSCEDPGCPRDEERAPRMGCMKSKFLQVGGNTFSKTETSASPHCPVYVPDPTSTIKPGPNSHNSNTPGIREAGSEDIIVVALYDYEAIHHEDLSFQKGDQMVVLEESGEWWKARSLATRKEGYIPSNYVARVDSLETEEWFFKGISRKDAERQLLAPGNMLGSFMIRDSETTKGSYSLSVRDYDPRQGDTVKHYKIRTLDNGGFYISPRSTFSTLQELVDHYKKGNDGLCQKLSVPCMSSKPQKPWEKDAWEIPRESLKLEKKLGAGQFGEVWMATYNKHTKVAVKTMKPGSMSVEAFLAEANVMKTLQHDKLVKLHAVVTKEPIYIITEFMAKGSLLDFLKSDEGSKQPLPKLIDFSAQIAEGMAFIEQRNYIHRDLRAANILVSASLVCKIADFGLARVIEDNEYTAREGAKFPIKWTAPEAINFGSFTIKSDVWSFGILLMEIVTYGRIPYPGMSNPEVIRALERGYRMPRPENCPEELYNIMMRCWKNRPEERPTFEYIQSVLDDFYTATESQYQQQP
Sequence of EPHB1 (P54762 whole entry, looked up): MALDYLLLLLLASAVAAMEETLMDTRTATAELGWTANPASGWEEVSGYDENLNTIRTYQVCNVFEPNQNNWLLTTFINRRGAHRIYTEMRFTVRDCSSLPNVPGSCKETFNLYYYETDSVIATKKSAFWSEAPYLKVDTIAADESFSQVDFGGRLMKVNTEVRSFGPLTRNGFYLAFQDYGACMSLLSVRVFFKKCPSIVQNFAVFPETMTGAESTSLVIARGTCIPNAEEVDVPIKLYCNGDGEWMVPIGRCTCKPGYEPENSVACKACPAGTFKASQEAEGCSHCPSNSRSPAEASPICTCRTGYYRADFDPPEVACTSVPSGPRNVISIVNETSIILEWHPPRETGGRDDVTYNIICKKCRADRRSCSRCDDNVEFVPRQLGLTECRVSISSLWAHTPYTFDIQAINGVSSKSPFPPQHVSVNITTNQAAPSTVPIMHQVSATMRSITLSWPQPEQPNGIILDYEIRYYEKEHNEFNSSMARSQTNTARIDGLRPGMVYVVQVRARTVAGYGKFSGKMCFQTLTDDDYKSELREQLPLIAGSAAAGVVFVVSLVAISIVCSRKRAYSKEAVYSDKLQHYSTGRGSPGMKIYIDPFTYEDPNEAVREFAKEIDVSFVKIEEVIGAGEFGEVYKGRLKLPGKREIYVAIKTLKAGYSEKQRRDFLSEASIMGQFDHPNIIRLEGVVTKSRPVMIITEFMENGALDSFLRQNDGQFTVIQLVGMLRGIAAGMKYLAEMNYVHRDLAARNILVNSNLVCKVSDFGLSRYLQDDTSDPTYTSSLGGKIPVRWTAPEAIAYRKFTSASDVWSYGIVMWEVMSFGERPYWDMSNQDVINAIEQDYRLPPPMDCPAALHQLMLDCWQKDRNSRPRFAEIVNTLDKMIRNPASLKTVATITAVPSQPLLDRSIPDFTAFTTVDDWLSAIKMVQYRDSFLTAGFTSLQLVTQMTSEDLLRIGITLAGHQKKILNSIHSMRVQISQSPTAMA
Sequence of Fyn (P06241 whole entry, looked up): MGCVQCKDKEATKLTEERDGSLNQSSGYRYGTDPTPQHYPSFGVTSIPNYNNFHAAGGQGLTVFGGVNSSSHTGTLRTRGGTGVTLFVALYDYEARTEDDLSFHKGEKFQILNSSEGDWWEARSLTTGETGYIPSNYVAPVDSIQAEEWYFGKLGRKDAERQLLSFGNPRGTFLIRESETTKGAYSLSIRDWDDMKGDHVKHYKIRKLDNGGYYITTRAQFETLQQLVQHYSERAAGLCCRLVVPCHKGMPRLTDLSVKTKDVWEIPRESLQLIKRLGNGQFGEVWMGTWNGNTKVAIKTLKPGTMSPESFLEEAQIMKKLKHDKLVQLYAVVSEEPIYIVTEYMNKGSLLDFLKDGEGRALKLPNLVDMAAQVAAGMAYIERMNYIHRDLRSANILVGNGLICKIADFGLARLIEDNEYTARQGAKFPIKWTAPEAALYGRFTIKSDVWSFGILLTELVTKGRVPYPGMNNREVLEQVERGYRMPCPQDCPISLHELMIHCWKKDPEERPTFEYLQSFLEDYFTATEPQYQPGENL
Sequence of FGFR3 (P22607 whole entry, looked up): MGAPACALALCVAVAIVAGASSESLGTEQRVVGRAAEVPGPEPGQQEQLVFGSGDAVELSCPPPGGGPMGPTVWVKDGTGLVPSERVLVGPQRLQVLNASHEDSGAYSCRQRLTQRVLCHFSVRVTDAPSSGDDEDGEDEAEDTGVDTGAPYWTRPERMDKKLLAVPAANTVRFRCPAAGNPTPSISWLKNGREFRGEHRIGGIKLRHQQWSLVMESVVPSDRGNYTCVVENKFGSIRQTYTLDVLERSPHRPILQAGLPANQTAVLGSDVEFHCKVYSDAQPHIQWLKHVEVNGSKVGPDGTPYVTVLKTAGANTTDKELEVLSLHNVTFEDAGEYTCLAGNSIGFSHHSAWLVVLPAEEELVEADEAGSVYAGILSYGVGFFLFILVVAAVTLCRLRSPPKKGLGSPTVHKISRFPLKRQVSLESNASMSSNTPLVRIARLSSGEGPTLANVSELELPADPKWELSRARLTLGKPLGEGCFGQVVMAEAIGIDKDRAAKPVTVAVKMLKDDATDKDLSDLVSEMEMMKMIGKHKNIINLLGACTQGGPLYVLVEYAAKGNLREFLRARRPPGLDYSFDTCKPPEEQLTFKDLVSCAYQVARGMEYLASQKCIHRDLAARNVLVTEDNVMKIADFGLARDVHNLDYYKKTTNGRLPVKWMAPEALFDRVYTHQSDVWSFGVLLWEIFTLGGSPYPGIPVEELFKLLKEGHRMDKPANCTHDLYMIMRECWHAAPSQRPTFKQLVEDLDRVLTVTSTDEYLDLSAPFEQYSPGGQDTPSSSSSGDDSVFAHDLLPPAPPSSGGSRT
Sequence of Jak2 (O60674 whole entry, looked up): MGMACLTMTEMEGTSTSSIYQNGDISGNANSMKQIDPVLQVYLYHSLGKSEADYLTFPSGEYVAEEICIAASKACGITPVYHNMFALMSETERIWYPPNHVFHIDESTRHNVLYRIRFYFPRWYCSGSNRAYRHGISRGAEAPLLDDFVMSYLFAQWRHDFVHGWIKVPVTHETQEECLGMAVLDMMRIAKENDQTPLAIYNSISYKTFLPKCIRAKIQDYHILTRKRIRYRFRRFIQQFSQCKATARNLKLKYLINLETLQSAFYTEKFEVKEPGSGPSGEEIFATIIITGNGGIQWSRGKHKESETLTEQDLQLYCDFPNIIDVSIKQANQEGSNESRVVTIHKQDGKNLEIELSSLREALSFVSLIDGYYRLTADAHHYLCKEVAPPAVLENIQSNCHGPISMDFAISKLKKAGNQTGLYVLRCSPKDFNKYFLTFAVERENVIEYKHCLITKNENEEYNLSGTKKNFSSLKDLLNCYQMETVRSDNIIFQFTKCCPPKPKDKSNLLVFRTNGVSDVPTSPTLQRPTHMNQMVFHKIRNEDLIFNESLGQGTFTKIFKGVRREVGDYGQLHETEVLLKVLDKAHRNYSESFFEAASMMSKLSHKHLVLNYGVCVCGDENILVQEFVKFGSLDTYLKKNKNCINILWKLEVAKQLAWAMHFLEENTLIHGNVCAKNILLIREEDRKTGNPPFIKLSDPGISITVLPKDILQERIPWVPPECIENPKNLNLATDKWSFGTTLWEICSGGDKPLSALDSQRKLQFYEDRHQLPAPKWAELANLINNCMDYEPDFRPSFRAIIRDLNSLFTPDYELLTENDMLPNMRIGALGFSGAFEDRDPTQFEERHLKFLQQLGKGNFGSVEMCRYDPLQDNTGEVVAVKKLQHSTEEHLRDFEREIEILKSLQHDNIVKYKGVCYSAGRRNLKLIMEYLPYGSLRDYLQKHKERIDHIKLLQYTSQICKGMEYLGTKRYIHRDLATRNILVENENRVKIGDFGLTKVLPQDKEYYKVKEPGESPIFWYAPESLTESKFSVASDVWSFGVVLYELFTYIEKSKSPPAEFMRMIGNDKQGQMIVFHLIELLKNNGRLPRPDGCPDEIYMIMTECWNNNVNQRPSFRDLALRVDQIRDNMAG

Sequence | phosphorylation enrichment (FGFR1) | phosphorylation enrichment (c-Abl (mouse)) | phosphorylation enrichment (FGFR3) | phosphorylation enrichment (EPHB2) | phosphorylation enrichment (Fer (mouse)) | phosphorylation enrichment (c-Src) | phosphorylation enrichment (AncSZ) | phosphorylation enrichment (EPHB1) | phosphorylation enrichment (Hck) | phosphorylation enrichment (MERTK) | phosphorylation enrichment (Fyn) | phosphorylation enrichment (Fes) | phosphorylation enrichment (Jak2) | SH2 binding enrichment (SHP2-C SH2) | SH2 binding enrichment (Grb2 SH2) | SH2 binding enrichment (c-Src SH2)
RRNSPYSQTMK [TET2_Y819] | 2.12 | 1.81 | 0.953 | 0.853 | 0.63 | 1.02 | 1.02 | 1.07 | 0.913 | 0.813 | 0.731 | 1.14 | 1.84 | 0.43 | 0.76 | 0.545
YIATQYSLCPR [LBR_Y166_R169C] | 1.73 | 0.716 | 1.19 | 0.817 | 0.606 | 0.725 | 1.23 | 0.511 | 0.719 | 1.75 | 0.67 | 0.907 | 0.873 | 0.839 | 0.885 | 0.713
EWQQIYTFDSG [JUP_Y20_T19I_YF] | 7.82 | 1.06 | 5.97 | 0.906 | 4.03 | 9.4 | 1.78 | 1.21 | 7.35 | 9.37 | 11.9 | 1.58 | 1.21 | 0.92 | 1.23 | 0.555
GIVEDYRPRFY [ACVRL1_Y421_P424R] | 0.409 | 0.585 | 0.521 | 0.615 | 0.519 | 0.464 | 0.7 | 0.375 | 0.537 | 0.674 | 0.447 | 0.952 | 0.619 | 0.757 | 0.882 | 0.481
GCKNRYDEDKP [THAP1_Y14_K16E] | 0.606 | 0.512 | 0.722 | 0.497 | 0.452 | 0.438 | 0.856 | 0.51 | 0.596 | 0.431 | 0.49 | 0.808 | 0.617 | 0.722 | 1.35 | 0.692
VSSPKYGSDDE [TMCC2_Y473] | 0.46 | 0.992 | 0.713 | 0.505 | 0.553 | 0.619 | 0.968 | 0.559 | 0.429 | 0.464 | 0.556 | 1.01 | 0.926 | 0.93 | 1.13 | 0.556
GLCSYYETSKM [MAGED2_Y449_R446C] | 6.32 | 0.955 | 4.99 | 1.11 | 1.01 | 1.81 | 1.39 | 1.67 | 0.926 | 1.25 | 0.68 | 1.18 | 1.3 | 0.72 | 0.818 | 1.2
RLLRGYRQDAF [HLA-A_Y137_F133L_YF] | 0.547 | 0.807 | 0.676 | 0.334 | 0.659 | 0.819 | 1.22 | 0.809 | 0.604 | 0.647 | 0.678 | 0.981 | 0.854 | 0.965 | 0.762 | 0.465
FGFPGYQSKHF [TIMP3_Y177_YF] | 0.47 | 0.574 | 0.499 | 0.398 | 0.406 | 0.401 | 0.534 | 0.422 | 0.496 | 0.405 | 0.521 | 0.651 | 0.5 | 0.75 | 1.07 | 0.588

Source: the supplement of paper PMC10065799, “High-throughput profiling of sequence recognition by tyrosine kinases and SH2 domains using bacterial peptide display” (eLife, 2023)
